Results published in patent US20220177587A1, “METHODS AND USES OF VARIANT CD80 FUSION PROTEINS AND RELATED CONSTRUCTS” (Alpine Immune Sciences, Inc., priority 2018, published 2022).
Changes are numbered by the printed parent chain. In names and notes the source's numbering stands.

B1: L25S/E35D/M47I/D90N: variant CD80 IgV-Fc, IgV SEQ ID NO:168 (protein)
chain: VIHVTKEVKEVATLSCGHNVSVEESAQTRIYWQKDKKMVLTMMSGDINIWPEYKNRTIFDITNNLSIVILALRPSDEGTYECVVLKYEKNAFKREHLAEVTLSVKAD
B2: M47V/N48H: variant CD80 IgV-Fc, IgV SEQ ID NO:180 (protein)
chain: B1 chain with S25L, D35E, I47V, N48H, N90D
B3: Q33E/T41A: variant CD80 IgV-Fc, IgV SEQ ID NO:179 (protein)
chain: B1 chain with S25L, Q33E, D35E, T41A, I47M, N90D
B4: V20I/M47V/A71D: variant CD80 IgV-Fc, IgV SEQ ID NO:191 (protein)
chain: B1 chain with V20I, S25L, D35E, I47V, A71D, N90D
B5: K36R/G78A: variant CD80 IgV-Fc, IgV SEQ ID NO:178 (protein)
chain: B1 chain with S25L, D35E, K36R, I47M, G78A, N90D
B6: V68M/L70M/A71D/E95K: variant CD80 IgV-Fc, IgV SEQ ID NO:210 (protein)
chain: B1 chain with S25L, D35E, I47M, V68M, L70M, A71D, N90D, E95K
B7: E35D/T57A/A71D/L85Q: variant CD80 IgV-Fc, IgV SEQ ID NO:206 (protein)
chain: B1 chain with S25L, I47M, T57A, A71D, L85Q, N90D
B8: V22L/E35G/A71D/L72P: variant CD80 IgV-Fc, IgV SEQ ID NO:193 (protein)
chain: B1 chain with V22L, S25L, D35G, I47M, A71D, L72P, N90D
B9: E35D/I57I/L70Q/A71D: variant CD80 IgV-Fc, IgV SEQ ID NO:185 (protein)
chain: B1 chain with S25L, I47M, T57I, L70Q, A71D, N90D
B10: M47I/E88D: variant CD80 IgV-Fc, IgV SEQ ID NO:186 (protein)
chain: B1 chain with S25L, D35E, E88D, N90D
B11: E81K/A91S: variant CD80 IgV-Fc, IgV SEQ ID NO:172 (protein)
chain: B1 chain with S25L, D35E, I47M, E81K, N90D, A91S
B12: E35D/I67L/A71D: variant CD80 IgV-Fc, IgV SEQ ID NO:195 (protein)
chain: B1 chain with S25L, I47M, I67L, A71D, N90D
B13: A26P/E35D/M43I/L85Q/E88D: variant CD80 IgV-Fc, IgV SEQ ID NO:202 (protein)
chain: B1 chain with S25L, A26P, M43I, I47M, L85Q, E88D, N90D
B14: Q27L/E35D/M47I/T57I/L70Q/E88D: variant CD80 IgV-Fc, IgV SEQ ID NO:204 (protein)
chain: B1 chain with S25L, Q27L, T57I, L70Q, E88D, N90D
B15: T41S/A71D/V84A: variant CD80 IgV-Fc, IgV SEQ ID NO:175 (protein)
chain: B1 chain with S25L, D35E, T41S, I47M, A71D, V84A, N90D
B16: H18Y/M47I/T57I/A71G: variant CD80 IgV-Fc, IgV SEQ ID NO:189 (protein)
chain: B1 chain with H18Y, S25L, D35E, T57I, A71G, N90D
B17: M47V/I69F/A71D/V831: variant CD80 IgV-Fc, IgV SEQ ID NO:205 (protein)
chain: B1 chain with S25L, D35E, I47V, I69F, A71D, V83I, N90D
B18: Q27H/E35G/A71D/L72P/T791: variant CD80 IgV-Fc, IgV SEQ ID NO:196 (protein)
chain: B1 chain with S25L, Q27H, D35G, I47M, A71D, L72P, T79I, N90D
B19: T13R/M42V/M47I/A71D: variant CD80 IgV-Fc, IgV SEQ ID NO:197 (protein)
chain: B1 chain with T13R, S25L, D35E, M42V, A71D, N90D
B20: V20I/M47V/I57I/V84I: variant CD80 IgV-Fc, IgV SEQ ID NO:190 (protein)
chain: B1 chain with V20I, S25L, D35E, I47V, T57I, V84I, N90D
B21: A71D: variant CD80 IgV-Fc, IgV SEQ ID NO:170 (protein)
chain: B1 chain with S25L, D35E, I47M, A71D, N90D
B22: K34E/T41A/L72V: variant CD80 IgV-Fc, IgV SEQ ID NO:174 (protein)
chain: B1 chain with S25L, K34E, D35E, T41A, I47M, L72V, N90D
B23: E23D/M42V/M43I/I58V/L70R: variant CD80 IgV-Fc, IgV SEQ ID NO:209 (protein)
chain: B1 chain with E23D, S25L, D35E, M42V, M43I, I47M, I58V, L70R, N90D
B24: M42I/I61V/A71D: variant CD80 IgV-Fc, IgV SEQ ID NO:187 (protein)
chain: B1 chain with S25L, D35E, M42I, I47M, I61V, A71D, N90D
B25: E35D/A71D/L72V: variant CD80 IgV-Fc, IgV SEQ ID NO:200 (protein)
chain: B1 chain with S25L, I47M, A71D, L72V, N90D
B26: M47L/V68A: variant CD80 IgV-Fc, IgV SEQ ID NO:181 (protein)
chain: B1 chain with S25L, D35E, I47L, V68A, N90D
B27: E35D/M43I/A71D: variant CD80 IgV-Fc, IgV SEQ ID NO:212 (protein)
chain: B1 chain with S25L, M43I, I47M, A71D, N90D
B28: S44P/A71D: variant CD80 IgV-Fc, IgV SEQ ID NO:182 (protein)
chain: B1 chain with S25L, D35E, S44P, I47M, A71D, N90D
B29: Q27H/M43I/A71D/R73S: variant CD80 IgV-Fc, IgV SEQ ID NO:183 (protein)
chain: B1 chain with S25L, Q27H, D35E, M43I, I47M, A71D, R73S, N90D
B30: N55I/T57I/I69F: variant CD80 IgV-Fc, IgV SEQ ID NO:211 (protein)
chain: B1 chain with S25L, D35E, I47M, N55I, T57I, I69F, N90D
B31: E35D/A71D: variant CD80 IgV-Fc, listed twice: IgV SEQ ID NO:176 (Table E1) and 194 (Table E2) (protein)
chain: B1 chain with S25L, I47M, A71D, N90D

These molecules were tested against CD28 (Homo sapiens, UniProt P10747) (assay: Jurkat/IL2 reporter assay: blockade of CD28 costimulation (plate-bound anti-CD3/CD86-Fc)). Settings: Table E5; protein diluted to 40 nM before mixing with cells; 5 hours.
Format: cell-based
Parameters: host or cells: Jurkat cells expressing an IL-2-luciferase reporter
Description: The day before the assay, the assay plate was prepared. […] The plate was incubated overnight at 4° C. to allow the antibody and CD86-Fc protein to adhere to the surface of the plate. The next day, the wells of the assay plate were washed twice with 150 μL PBS prior to the assay.
Jurkat effector cells expressing IL-2-luciferase reporter were counted and resuspended in assay buffer to a concentration of 2×10^6 cells/mL. 60 μL of the Jurkat cell suspension were then added to the wells containing the CD80-Fc fusion molecules or controls. The cells and CD80 proteins were incubated at room temperature for 15 minutes and then 100 μL of the cell/CD80 protein mixture were transferred/well of the prepared anti-CD3/CD86-Fc assay plate.
The assay plate was briefly spun down (10 seconds at 1200 RPM) and incubated at 37° C. for 5 hours. After the 5 hour incubation, the plate was removed and equilibrated to room temperature for 15 minutes. 100 μL of Bio-Glo (Promega) were added/well of the assay plate, which was then placed on an orbital shaker for 10 minutes. Luminescence was measured with a 1 second per well integration time using a BioTek Cytation 3 luminometer.

Molecule	Average Relative Luminescence Units
B1	2567 Relative Luminescence Units
B2	2656 Relative Luminescence Units
B3	4220 Relative Luminescence Units
B4	360 Relative Luminescence Units
B5	2597 Relative Luminescence Units
B6	2067 Relative Luminescence Units
B7	3213 Relative Luminescence Units
B8	2334 Relative Luminescence Units
B9	280 Relative Luminescence Units
B10	2178 Relative Luminescence Units
B11	4038 Relative Luminescence Units
B12	1223 Relative Luminescence Units
B13	4078 Relative Luminescence Units
B14	1180 Relative Luminescence Units
B15	2685 Relative Luminescence Units
B16	924 Relative Luminescence Units
B17	290 Relative Luminescence Units
B18	2000 Relative Luminescence Units
B19	759 Relative Luminescence Units
B20	1870 Relative Luminescence Units
B21	999 Relative Luminescence Units
B22	4225 Relative Luminescence Units
B23	4460 Relative Luminescence Units
B24	2549 Relative Luminescence Units
B25	1152 Relative Luminescence Units
B26	5445 Relative Luminescence Units
B27	3019 Relative Luminescence Units
B28	2848 Relative Luminescence Units
B29	1891 Relative Luminescence Units
B30	1915 Relative Luminescence Units

Same assay, conditions: Table E5; protein diluted to 40 nM before mixing with cells; 5 hours; SEQ ID NO 176

Molecule	Average Relative Luminescence Units
B31	1461 Relative Luminescence Units
